Reference: patent US20050100965A1

Target: recombinant IL18 (YK27-1) (Homo sapiens (Human)) (UniProt Q14116)
Assay: cell-based or functional assay

B1: Murine anti-human IL-18 mAb (125-2H) (antibody, from another filing, V domains shown)
VH: EIQLQQSGPELVKPGASVKVSCKASGYSFTDYFIYWVKQSHGKSLEWIGDIDPYNGDTSYNQKFRDKATLTVDQSSTTAFMHLNSLTSEDSAVYFCARGLRFWGQGTLVTVSA
VL: DIQMTQSPSSLSASLGERVSLTCRASQDIGSKLYWLQQEPDGTFKRLIYATSSLDSGVPKRFSGSRSGSDYSLTISSLESEDFVDYYCLQYASSPYTFGGGTKLAIKR
B1 gave an IFN (interferon γ) transcript level, quantitative PCR, whole blood stimulated with IL18+IL12, donor1n (Unstimulated 0.002, Stimulated 0.339) of 0.07, an IFN (interferon γ) transcript level, quantitative PCR, whole blood stimulated with IL18+IL12, donor 3n (Unstimulated 0.001, Stimulated 0.187) of 0.026 and an IFN (interferon γ) transcript level, quantitative PCR, whole blood stimulated with IL18+IL12, donor4n (Unstimulated 0.001, Stimulated 0.082) of 0.027. For the same binder, the IFN (interferon γ) transcript level, quantitative PCR, whole blood stimulated with IL18+IL12, donor 5n (Unstimulated 0.003, Stimulated 0.012) was 0.006, the IFN (interferon γ) transcript level, quantitative PCR, whole blood stimulated with IL18+IL12, donor6n (Unstimulated 0.002, Stimulated 0.076) was 0.01 and the IFN (interferon γ) transcript level, quantitative PCR, whole blood stimulated with IL18+IL12, donor7n (Unstimulated 0.002, Stimulated 0.049) was 0.012. The IFN (interferon γ) transcript level, quantitative PCR, whole blood stimulated with IL18+IL12, donor8n (Unstimulated 0.002, Stimulated 0.049) was 0.012, the IFN (interferon γ) transcript level, quantitative PCR, whole blood stimulated with IL18+IL12, donor 9n (Unstimulated 0.001, Stimulated 1.250) was 0 and the IFN (interferon γ) transcript level, quantitative PCR, whole blood stimulated with IL18+IL12, donor10n (Unstimulated 0.002, Stimulated 0.361) was 0.002.
